# Assays:
# Rat plasma stability = format: in vitro ADME; conditions: 37 °C
# Method: (§1) For plasma stability studies, C3a and experimental compounds (10 μL, 1 mM in DMSO) were added to neat rat plasma (190 μL) and heated to 37 °C in a circulating water bath. Aliquots (20 µL) were collected at time points (0, 2, 5 and 10 min for C3a; 0, 5, 15, 30, 60, 120 and 240 min for other test compounds) and added directly to MeCN/H2O (80 µL, 9:1). The samples were centrifuged at 13,000 g for 3 min before supernatants were isolated and analyzed for test compound degradation via LC-MS. For liver microsomal stability studies, commercially available rat liver microsomes from Life Technologies, GIBCO were used. In brief, microsomes stored at −80 °C were slowly defrosted on ice. Test compounds (183 μL, 1 μM in 100 mM phosphate buffer pH 7.4 containing 0.1 % DMSO) were added to microsomes (5 μL) and NADPH (2 µL, 20 mM). Test solutions were heated in a circulating water bath at 37 °C for 5 min before additional cofactor NADPH (10 μL, 20 mM) was added. Aliquots (20 μL) were taken at time points (0, 5, 15, 30 and 60 min from the second addition of NADPH). Aliquots were added to MeCN/H2O (80 μL, 9:1) and centrifuged at 13,000 g for 3 min. Supernatants were analyzed for test compound degradation by LC-MSMS. Concentrations were plotted as a function of time on a semi-logarithmic graph. Rat plasma and microsomal activity was confirmed by rapid degradation of SLIGRL-NH2 (t1/2 < 5 min) in a parallel experiment.
# C3aR [1] = biological target: T1, C3aR (Homo sapiens, UniProt Q16581); assay: Histamine secretion in human LAD2 mast cells (agonist mode); format: cell-based; design: Concentration-dependent histamine secretion in human LAD2 mast cells; endogenous in cells; host or cells: LAD2 human mast cells; conditions: compound alone, 30 min, n ≥ 3, ± SEM
# T1 sequence (Q16581 1-482): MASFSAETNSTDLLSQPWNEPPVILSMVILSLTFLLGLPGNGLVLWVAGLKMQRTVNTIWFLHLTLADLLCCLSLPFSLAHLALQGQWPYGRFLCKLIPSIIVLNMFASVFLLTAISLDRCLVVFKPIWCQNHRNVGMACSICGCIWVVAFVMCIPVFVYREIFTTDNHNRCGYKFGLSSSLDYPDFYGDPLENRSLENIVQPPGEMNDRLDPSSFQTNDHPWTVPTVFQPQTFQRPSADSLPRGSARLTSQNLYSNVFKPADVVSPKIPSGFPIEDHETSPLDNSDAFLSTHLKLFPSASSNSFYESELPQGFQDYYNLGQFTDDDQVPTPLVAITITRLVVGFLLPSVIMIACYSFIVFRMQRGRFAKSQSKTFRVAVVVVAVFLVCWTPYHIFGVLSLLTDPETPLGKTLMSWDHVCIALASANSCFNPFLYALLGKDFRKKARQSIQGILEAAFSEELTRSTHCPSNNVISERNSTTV
# Method: LAD2 human mast cells (kindly provided by Dr Dean Metcalfe, National Institute of Allergy and Infectious Diseases, National Institute of Health) were cultured in StemPro®-34 Serum Free Media (Invitrogen, Australia) supplemented with StemPro®-34 nutrient, 100 U/mL penicillin, 100 μg/mL streptomycin, 2 mM GlutaMAX, and 100 ng/mL human stem cell factor (SCF). Cells were hemi-depleted weekly and were not allowed to grow beyond a density of 0.5 × 10^6/mL. This cell line was authenticated by expression of tryptase and histamine granules. For the histamine assay, 1 × 10^4 cells per well were seeded in StemPro®-34 SFM in 96-well plates for 30 min before any treatments. For agonist studies, the cells were treated with compounds prepared in media for 30 min. For antagonist studies, the cells were pre-treated with compounds prepared in SFM for 30 min before addition of C3aR agonists for another 30 min. Cells were centrifuged (500 g, 5 min, 4 °C) and cell-free supernatants were collected for measuring histamine. Histamine content was measured using the histamine EIA kit according to the manufacturer’s instructions (Abnova, Taiwan). The readings were recorded on a FLUOstar Optima (BMG LabTechnologies, Offenburg, Germany).
# C5aR = biological target: T2, C5aR (Homo sapiens, UniProt P21730); assay: [125I]-hC5a competition binding on HMDMs; conditions: [125I]-hC5a 25 pM
# T2 construct: endogenous in cells; host or cells: primary human monocyte-derived macrophages (HMDMs)
# T2 sequence (P21730 1-350): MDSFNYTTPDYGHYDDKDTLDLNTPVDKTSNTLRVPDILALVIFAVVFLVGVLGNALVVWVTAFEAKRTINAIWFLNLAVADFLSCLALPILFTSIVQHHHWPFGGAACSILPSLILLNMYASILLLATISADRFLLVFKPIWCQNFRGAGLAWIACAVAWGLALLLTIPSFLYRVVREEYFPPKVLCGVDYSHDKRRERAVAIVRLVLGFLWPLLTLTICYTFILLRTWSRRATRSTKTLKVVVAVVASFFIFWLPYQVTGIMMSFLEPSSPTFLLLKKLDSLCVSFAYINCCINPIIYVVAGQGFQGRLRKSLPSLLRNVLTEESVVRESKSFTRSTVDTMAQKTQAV
# Method: Receptor binding was performed by ligand competition with labelled 80 pM [^125I]-C3a or 25 pM [^125I]-C5a (2200 Ci/mmol; Perkin Elmer, Torrance, CA, USA) on HMDMs (1.2 × 10^6 cells/ml). HMDMs were treated with [^125I]-C3a or [^125I]-C5a ± various concentrations of unlabelled C3a/C5a or experimental ligands were diluted with assay buffer (50 mM Tris, 3 mM MgCl2, 0.1 mM CaCl2, 0.5% (w/v) BSA, pH 7.4) for 60 min at room temperature. Unbound [^125I]-C3a or [^125I]-C5a was removed by filtration through glass microfibre filter GF/B (Whatman Iner. Ltd, England) and washed three times with cold buffer (50 mM Tris-HCl pH 7.4). Bound [^125I]-C3a or [^125I]-C5a were assessed by scintillation counting on Microbeta counter. Specific binding was defined as the difference between total binding and nonspecific binding as determined in the presence of 1 μM unlabelled C3a or C5a[4].
# C3aR [2] = biological target: T1, C3aR; assay: Intracellular Ca2+ release in human monocyte-derived macrophages (agonist mode); format: cell-based; design: Concentration-dependent Ca^2+ release in human monocyte-derived macrophages (HMDMs); endogenous in cells; host or cells: primary human monocyte-derived macrophages (HMDMs); conditions: HMDMs, n ≥ 3, ± SEM
# Method: HMDMs were isolated using Ficoll-paque density centrifugation (GE Healthcare Bio-Science, Uppsala, Sweden) from buffy coat (of anonymous human donors) provided by the Australian Red Cross Blood Service, Brisbane. CD14^+ monocytes were positively selected using CD14 MicroBeads (Miltenyi Biotech, Auburn, USA)[40], [41]. CD14^+ monocytes were differentiated to HMDMs using 100 ng/mL of recombinant human macrophage colony-stimulating factor (PeptroTech, Rocky Hill, USA) for 7 days in Iscove’s modified Dulbecco’s media supplemented with 10% fetal bovine serum, penicillin (100 U/mL), streptomycin (100 µg/mL) and L-glutamine (2 mM). HMDMs were supplemented after 5 days with fresh medium containing 10 ng/ml macrophage colony-stimulating factor and collected by gentle scraping on day 7.
# HMDMs were seeded to a 96-well clear-bottom black-wall assay plate at a density of 5 × 10^4 cells per well and allowed to adhere overnight. Prior to assay, cells were incubated with dye-loading buffer (Hank’s balance salt solution (HBSS) buffer, 4 μM Fluo-3 AM, 25 μl Pluronic acid F-127 and 1% fetal bovine serum) for 1 h at 37 °C. Cells were then washed once with assay buffer (HBSS supplemented with 2.5 mM probenecid and 20 mM HEPES, pH 7.4). Intracellular calcium release was monitored using a fluorescence imaging plate reader (excitation 495 nm, emission 520 nm). The percentage responses were plotted against logarithmic concentrations of each test compound[42].
# C3aR [3] = biological target: T1, C3aR; assay: Intracellular Ca2+ release in HEK293 cells transfected with C3aR; format: cell-based; design: Concentration-dependent Ca^2+ release in human monocyte-derived macrophages (HMDMs); endogenous in cells; host or cells: primary human monocyte-derived macrophages (HMDMs); conditions: HEK293 cells transfected with C3aR (C3aR+/+), compound alone
# [4] = system: wild-type human HEK293 cells (C3aR−/−); assay: Intracellular Ca2+ release in wild-type HEK293 cells; format: cell-based
# [5] = Rat liver microsomal stability; format: in vitro ADME; conditions: rat, liver microsomes, pH 7.4; parallel control experiment, 37 °C; read-out: t1/2 in rat liver microsomes
# Method: as §1
"half-life at 50 µM (Rat plasma stability; rat, plasma (neat), parallel control experiment, read-out: t1/2 in rat plasma) [min]",half-life at 0.915 µM [5] [min],Substance,"Stability in rat plasma (Rat plasma stability; neat rat plasma, over 4 h (C3a up to 10 min))",EC50 (C3aR [1]) [nM],C5aR binding by competition with [125I]-hC5a (C5aR),EC50 (C3aR [2]) [nM],Intracellular Ca2+ release (C3aR [3]),Intracellular Ca2+ release [4]
,,"hC3a: human complement protein C3a, 77 residue ~9 kDa helix bundle inflammatory protein",degraded within minutes,3 ± 1.5,no binding,8 ± 2,did induce Ca^2+ release,did not induce Ca^2+ release
< 5,< 5,"H-SLIGRL-NH2 [SLIGRL-NH2, reference compound]",,,,,,

# Source: PMC5570900, “Exploiting a novel conformational switch to control innate immunity mediated by complement protein C3a” (Nature Communications, 2017)
